Results as given in patent US20130196320A1, “METHOD FOR IMPROVING CLEAVAGE OF DNA BY ENDONUCLEASE SENSITIVE TO METHYLATION” (CELLECTIS, priority 2010, published 2013).

Legend:
[1] = tested on: XPC4 endogenous locus in 293H cells; assay: Gene targeting induced by XPC4 meganuclease at its endogenous locus, PCR on cellular clones; assay type: cell-based, human; settings: for targeted events, % of the transfected cells: XPC4 meganuclease + repair matrix, n=2
Experimental: FIG. 11: XPC4 meganuclease efficiency is impaired by DNA methylation in vivo. 293H cells were co-transfected with 3 μg of XPC4 meganuclease expressing vector or empty vector and 2 μg of DNA repair matrix vector in presence or absence of DNA methylation inhibitor (5-aza-2′deoxycytidine). 480 individual cellular clones were analyzed in each condition for the presence of targeted events using specific PCR amplification.
Cell culture as well as general transfection conditions were described in “material and methods” section of part b) above. For this assay, 293H cells were co-transfected with 3 μg of XPC4 meganuclease expressing vector or empty vector and 2 μg of DNA repair matrix. The DNA repair matrix consists of a left and right arms corresponding to isogenic sequences of 1 kb located on both sides of the meganuclease recognition site. These two homology arms are separated by a heterologous fragment of 29 bp (sequence: […], SEQ ID NO: 64). Two days post-transfection, cells were replated in 10 cm dish. Two weeks later, individual clones were picked and subsequently amplified in 96 wells plates for 3 days. 480 individual cellular clones were then analyzed per condition. DNA extraction was performed with the ZR-96 genomic DNA kit (Zymo research) according to the supplier's protocol. The detection of targeted DNA matrix integrations was performed by specific PCR amplification using the primers: XPC4_F4: 5′-[…]-3′ (SEQ ID NO: 41) (located within the 29 bp of heterologous sequence, i.e. SEQ ID NO: 64) and XPC4_R4: 5′-[…]-3′ (located on the genomic sequence outside of the homology) (SEQ ID NO: 42).

[2] = biological target: random target (stretch of 12 GA repeats); assay: In vitro binding assay with random target
Experimental: Fluorescein labeled C1234 oligonucleotides were synthesized and HPLC-purified by Eurogentec. To prepare C 1234 duplex corresponding to I-Cre I double strand DNA wild type target, C1234 forward (SEQ ID NO: 31, “a” strand below) labeled with Fluorescein on its 5′ end was mixed with 1 equivalent of C1234_reverse (SEQ ID NO: 32, “b” strand below) in 100 mM Tris-HCl, 50 mM EDTA, 150 mM NaCl, pH8. The mixture was heated to 95° C. for 2 min and then cooled down to 25° C. over 1 hour. C1234 duplex was eventually purified by anion exchange chromatography using a miniQ PE column (GE healthcare) pre-equilibrated with buffer A (20 mM Tris-HCl, pH7.4). Single stranded oligonucleotides and other contaminants were first discarded using a 0 to 360 mM NaCl step gradient and elution of pure C1234 duplex was performed with a 360-1000 mM NaCl linear gradient (5 column volumes). C 1234 duplex and fluorescein final concentrations were assessed by spectrophotometry using their respective extinction coefficients ε260nm=62900 M^−1 cm^−1 and ε495nm=83000 M^−1 cm^−1. As expected, a ratio [C1234 duplex]/[fluorescein]˜1 was obtained. […] After 30 minutes incubation, the fluorescence anisotropy of the mixture was recorded with a Pherastar Plus (BMG Labtech) operating in fluorescence polarization end point mode with excitation and emission wavelengths set to 495 and 520 nm respectively. Apparent dissociation constants were determined by fitting raw data by an hyperbolic function (Ax=(A∞*[Meganuclease])/(Kd+[Meganuclease]) with Ax, the fluorescence anisotropy value obtained at a given meganuclease concentration, A∞, the fluorescence anisotropy value obtained at saturating concentration of meganuclease and Kd the dissociation constant of the equilibrium studied).

[3] = tested on: random target (stretch of 12 GA repeats); assay: In vitro single turn over cleavage assay with random target; assay type: biochemical

Molecule | targeted events ([1]; absence of meganuclease, with 5-aza-2′deoxycytidine treatment) | Kd [2] [nM] | kcat [3] [s⁻¹] | targeted events, % of the transfected cells ([1]; 5-aza-2′deoxycytidine (0.2 μM)) | targeted events, % of the transfected cells ([1]; absence of 5-aza-2′deoxycytidine) | increase of targeted event frequency ([1]; with 5-aza-2′deoxycytidine (0.2 μM) vs without) [fold]
Nc1ncn([C@H]2C[C@H](O)[C@@H](CO)O2)c(=O)n1 [5-aza-2′deoxycytidine, reference compound] | no targeted events could be detected | – | – | – | – | –
I-CreI: wild-type I-CreI meganuclease (… homing endonuclease), SEQ ID NO: 1, recombinant Cterm His-tag (protein, listed as Chlamydomonas reinhardtii, C-terminal His-tag) MNTKYNKEFLLYLAGFVDGDGSIIAQIKPNQSYKFKHQLSLTFQVTQKTQRRWFLDKLVDEIGVGYVRDRGSVSDYILSEIKPLHNFLTQLQPFLKLKQKQANLVLKIIEQLPSAKESPDKFLEVCTWVDQIAALNDSKTRKTTSETVRAVLDSLSEKKKSSP | – | > 1000 | <1.7e-06 | – | – | –
XPC4: engineered meganuclease (SEQ ID NO: 2) designed to cleave xeroderma pigmentosum group C gene (XPC) (protein) MANTKYNEEFLLYLAGFVDGDGSIIAQIKPNQSHKFKHALQLTFKVTQKTQRRWFLDKLVDEIGVGYVQDSGSVSNYILSEIKPLHNFLTQLQPFLELKQKQANLALKIIEQLPSAKESPDKFLEVCTWVDQVAALNDSKTRKTTSETVRAVLDSLSEKKKSSPAAGGSDKYNQALSKYNQALSKYNQALSGGGGSNKKFLLYLAGFVDSDGSIIAQIKPNQSHKFKHQLSLAFQVTQKTQRRWFLDKLVDRIGVGYVRDRGSVSDYILSKIKPLHNFLTQLQPFLKLKQKQANLVLKIIEQLPSAKESPDKFLEVCTWVDQVAALNDSKTRKTTSETVRAVLDSLSEKKKSSP | – | > 1000 | <1.7e-06 | 12.5%±0.26 | 1.05%±0.34 | 12
ADCY9: engineered meganuclease (SEQ ID NO: 3) designed to cleave adenylate cyclase 9 gene (protein) MANTKYNEEFLLYLAGFVDGDGSIIAQIKPNQSYKFKHQLSLTFRVTQKTQRRWFLDKLVDEIGVGYVRDSGSVSNYDLSEIKPLHNFLTQLQPFLELKQKQANLVLKIIEQLPSAKESPDKFLEVCTWVDQVAALNDSKTRKTTSETVRAVLDSLSEKKKSSPAAGGSDKYNQALSKYNQALSKYNQALSGGGGSNKKFLLYLAGFVDSDGSIIAQIKPDQSYKFKHQLGLTFQVTQKTQRRWFLDKLVDRIGVGYVRDRGSVSDYILSEIKPLHNFLTQLQPFLKLKQKQANLVLKIIEQLPSAKESPDKFLEVCTWVDQVAALNDSKTRKTTSETVRAVLDSLSEKKKSSP | – | > 1000 | <1.7e-06 | – | – | –
